From IntAct's records for PubMed 29892012 come the findings set out here.

The chains are these.
B1: Synaptotagmin-16 (Homo sapiens), Q17RD7 (parent)
chain: MVLAMASQDVQNFFQPFSSWISRVYEALQQAGDMLSASLVNISKQDSKLSDKLDQDLDNIQIQETYFEDEEQDNDWSQEDANSLFLEVDHFSCCNSDLQDSAQNSSPSLSQHAKDSCSTMSQWPNWASDDRKLPHVLSSIAEEEHHLEKQRSGLQHGFDSQLPGTLETVNGKKQVNSFGDDEELSTSSDSDEEVIKQFEISVSRSQSFRSVTSEKGKQTGLEQKPKFSRSLLTHGEDGTEVSACEDLDGASQRRYSENLSYGEDDHIPAHSQSPCERGDAKHHGTSHQESSVVQSLRRQSTEGSLEMETAFNSRGFEDSYATDSSSMWSPEEQDRTNLQVPSGVSEPISKCGDLDVIFEYRAASQKLTVTIVRAQGLPDKDRSGVNSWQVHVVLLPGKKHRGRTNIQRGPNPVFREKVTFAKLEPRDVAACAVRFRLYAARKMTRERMMGEKLFYLSHLHPEGEMKVTLVLEPRSNISSGGSPLSPSAVSHSDSTSSTQSLSHGGAPELLVGLSYNATTGRLSVEMIKGSHFRNLAVNRAPDTYGKLFLLNSVGQEMSRCKTSIRRGQPNPVYKETFVFQVALFQLSDVTLMISVYNRRTMKRKEMIGWIALGQNSSGEEEQDHWEEMKETKGQQICRWHTLLES
partner: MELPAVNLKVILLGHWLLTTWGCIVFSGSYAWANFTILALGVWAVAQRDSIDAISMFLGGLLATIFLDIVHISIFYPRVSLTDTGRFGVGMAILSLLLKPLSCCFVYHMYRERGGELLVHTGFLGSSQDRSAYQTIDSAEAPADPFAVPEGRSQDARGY
B2: FAST kinase domain-containing protein 5, mitochondrial (Homo sapiens), Q7L8L6 (parent)
chain: MAATLKSLKLVRYRAFCSPSAFGAVRSVSYWNVSSTQHGGQDPPEHISLCHSAKKVKNICSTFSSRRILTTSSAHPGLEFSKTSSSKASTLQLGSPRATGVDEEDVEVFDSFENMRVFLQLRPEYRVHSYNASETSQLLSVSEGELILHKVRVNQNNLQAQVIVDYLCKLSSLPAEQHPVLLGSTSFALLCQLSVKKIQLFDTQDLINVLKAFVILGIPHSHSMLDVYETKCCHQVWEMNMDQLLLVADLWRYLGRKVPRFLNIFSSYLNLHWKDLSLSQLVHLIYVIGENRQVSQDLMQKLESLILKYIDLINLEEVGTICLGFFKSSTNLSEFVMRKIGDLACANIQHLSSRSLVNIVKMFRFTHVDHINFMKQIGEIAPQRIPSLGVQGVMHLTLYCSALRFLNEGVMNAVAASLPPRVAHCRSKDVAKILWSFGTLNYKPPNAEEFYSSLISEIHRKMPEFNQYPEHLPTCLLGLAFLEYFPVELIDFALSPGFVRLAQERTKFDLLKELYTLDGTVGIECPDYRGNRLSTHLQQEGSELLWYLAEKDMNSKPEFLETVFLLETMLGGPQYVKHHMILPHTRSSDLEVQLDVNLKPLPFNREATPAENVAKLRLEHVGVSLTDDLMNKLLKGKARGHFQGKTESEPGQQPMELENKAAVPLGGFLCNVADKSGAMEMAGLCPAACMQTPRMKLAVQFTNRNQYCYGSRDLLGLHNMKRRQLARLGYRVVELSYWEWLPLLKRTRLEKLAFLHEKVFTSAL
partner: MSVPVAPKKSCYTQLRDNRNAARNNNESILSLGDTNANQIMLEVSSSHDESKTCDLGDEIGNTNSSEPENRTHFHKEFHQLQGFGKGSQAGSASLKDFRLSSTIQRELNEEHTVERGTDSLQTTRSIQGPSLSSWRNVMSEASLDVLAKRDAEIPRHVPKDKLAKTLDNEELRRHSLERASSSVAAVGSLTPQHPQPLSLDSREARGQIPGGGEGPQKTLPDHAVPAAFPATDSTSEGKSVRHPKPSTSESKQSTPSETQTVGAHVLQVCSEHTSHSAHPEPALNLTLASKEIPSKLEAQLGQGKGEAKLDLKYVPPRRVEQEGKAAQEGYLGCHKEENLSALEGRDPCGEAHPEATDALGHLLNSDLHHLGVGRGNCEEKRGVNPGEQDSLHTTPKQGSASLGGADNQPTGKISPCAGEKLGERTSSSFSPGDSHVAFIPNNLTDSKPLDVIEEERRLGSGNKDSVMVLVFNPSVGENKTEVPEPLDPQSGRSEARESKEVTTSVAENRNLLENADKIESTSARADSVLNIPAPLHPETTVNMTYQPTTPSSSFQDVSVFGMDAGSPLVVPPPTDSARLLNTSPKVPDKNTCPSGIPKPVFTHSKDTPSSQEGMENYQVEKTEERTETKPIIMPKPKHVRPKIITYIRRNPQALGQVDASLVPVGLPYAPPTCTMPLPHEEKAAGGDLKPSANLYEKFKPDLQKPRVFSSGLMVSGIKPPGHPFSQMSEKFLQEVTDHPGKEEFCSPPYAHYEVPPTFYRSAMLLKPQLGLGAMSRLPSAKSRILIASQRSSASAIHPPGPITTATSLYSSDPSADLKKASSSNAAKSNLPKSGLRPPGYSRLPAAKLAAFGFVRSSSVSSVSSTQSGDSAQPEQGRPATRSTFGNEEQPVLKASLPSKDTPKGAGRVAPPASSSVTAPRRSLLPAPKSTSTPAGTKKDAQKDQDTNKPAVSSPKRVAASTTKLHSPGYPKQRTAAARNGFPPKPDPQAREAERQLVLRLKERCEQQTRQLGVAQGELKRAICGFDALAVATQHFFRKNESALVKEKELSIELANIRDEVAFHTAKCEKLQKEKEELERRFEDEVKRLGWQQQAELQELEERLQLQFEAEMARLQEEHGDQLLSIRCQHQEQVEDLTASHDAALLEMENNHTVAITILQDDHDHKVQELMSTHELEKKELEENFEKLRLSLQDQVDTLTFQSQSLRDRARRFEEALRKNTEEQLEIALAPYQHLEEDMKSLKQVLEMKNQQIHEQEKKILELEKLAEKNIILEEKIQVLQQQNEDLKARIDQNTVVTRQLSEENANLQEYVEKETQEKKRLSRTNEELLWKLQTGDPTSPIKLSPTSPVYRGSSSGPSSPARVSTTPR
B3: Enhancer of mRNA-decapping protein 3 (Homo sapiens), Q96F86 (parent)
chain: MATDWLGSIVSINCGDSLGVYQGRVSAVDQVSQTISLTRPFHNGVKCLVPEVTFRAGDITELKILEIPGPGDNQHFGDLHQTELGPSGAGCQVGINQNGTGKFVKKPASSSSAPQNIPKRTDVKSQDVAVSPQQQQCSKSYVDRHMESLSQSKSFRRRHNSWSSSSRHPNQATPKKSGLKNGQMKNKDDECFGDDIEEIPDTDFDFEGNLALFDKAAVFEEIDTYERRSGTRSRGIPNERPTRYRHDENILESEPIVYRRIIVPHNVSKEFCTDSGLVVPSISYELHKKLLSVAEKHGLTLERRLEMTGVCASQMALTLLGGPNRLNPKNVHQRPTVALLCGPHVKGAQGISCGRHLANHDVQVILFLPNFVKMLESITNELSLFSKTQGQQVSSLKDLPTSPVDLVINCLDCPENVFLRDQPWYKAAVAWANQNRAPVLSIDPPVHEVEQGIDAKWSLALGLPLPLGEHAGRIYLCDIGIPQQVFQEVGINYHSPFGCKFVIPLHSA
partner: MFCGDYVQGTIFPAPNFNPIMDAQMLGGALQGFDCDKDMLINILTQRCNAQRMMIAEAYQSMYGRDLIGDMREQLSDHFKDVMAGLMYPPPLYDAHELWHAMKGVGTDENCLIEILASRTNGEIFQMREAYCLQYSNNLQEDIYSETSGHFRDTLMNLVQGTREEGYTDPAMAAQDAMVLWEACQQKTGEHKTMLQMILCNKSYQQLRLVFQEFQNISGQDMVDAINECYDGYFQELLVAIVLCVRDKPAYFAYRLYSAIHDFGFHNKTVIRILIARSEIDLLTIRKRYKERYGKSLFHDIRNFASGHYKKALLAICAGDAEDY
B4: Ena/VASP-like protein (Homo sapiens), Q9UI08 (parent)
chain: MSEQSICQARASVMVYDDTSKKWVPIKPGQQGFSRINIYHNTASNTFRVVGVKLQDQQVVINYSIVKGLKYNQATPTFHQWRDARQVYGLNFASKEEATTFSNAMLFALNIMNSQEGGPSSQRQVQNGPSPDEMDIQRRQVMEQHQQQRQESLERRTSATGPILPPGHPSSAASAPVSCSGPPPPPPPPVPPPPTGATPPPPPPLPAGGAQGSSHDESSMSGLAAAIAGAKLRRVQRPEDASGGSSPSGTSKSDANRASSGGGGGGLMEEMNKLLAKRRKAASQSDKPAEKKEDESQMEDPSTSPSPGTRAASQPPNSSEAGRKPWERSNSVEKPVSSILSRTPSVAKSPEAKSPLQSQPHSRMKPAGSVNDMALDAFDLDRMKQEILEEVVRELHKVKEEIIDAIRQELSGISTT
partner: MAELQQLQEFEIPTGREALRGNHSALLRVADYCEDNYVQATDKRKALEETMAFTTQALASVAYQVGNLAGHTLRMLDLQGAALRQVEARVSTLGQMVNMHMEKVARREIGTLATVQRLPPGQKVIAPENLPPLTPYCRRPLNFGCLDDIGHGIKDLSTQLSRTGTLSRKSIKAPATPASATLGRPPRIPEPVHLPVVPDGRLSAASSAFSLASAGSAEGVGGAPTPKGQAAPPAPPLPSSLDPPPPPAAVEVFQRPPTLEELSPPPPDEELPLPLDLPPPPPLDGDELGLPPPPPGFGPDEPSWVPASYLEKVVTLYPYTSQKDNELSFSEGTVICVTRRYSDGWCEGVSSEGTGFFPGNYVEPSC
B5: Vesicle transport protein USE1 (Homo sapiens), Q9NZ43 (parent)
chain: MAASRLELNLVRLLSRCEAMAAEKRDPDEWRLEKYVGALEDMLQALKVHASKPASEVINEYSWKVDFLKGMLQAEKLTSSSEKALANQFLAPGRVPTTARERVPATKTVHLQSRARYTSEMRSELLGTDSAEPEMDVRKRTGVAGSQPVSEKQLAAELDLVLQRHQNLQEKLAEEMLGLARSLKTNTLAAQSVIKKDNQTLSHSLKMADQNLEKLKTESERLEQHTQKSVNWLLWAMLIIVCFIFISMILFIRIMPKLK

In the first experiment the parent is B1. The following applies: with atrap_human AGTRAP.
Regarding R441W, the “effect of a mutation on the interaction” value is given as “with no effect”.

In another experiment the parent is B2. The following applies: with mtus2_human MTUS2, Q5JR59.
Consider E483D, for which the “effect of a mutation on the interaction” value was “with no effect”.

Variants of B3 are the subject of a further experiment. The following applies: with anx10_human ANXA10, Q9UJ72.
For the variant F213L, the “effect of a mutation on the interaction” value is “with no effect”.

Variants of B4 are the subject of another experiment. The following applies: with abi3_human ABI3, Q9P2A4.
On to R10Q, for which the “effect of a mutation on the interaction” value was “with no effect”.

Variants of B5 are the subject of the next experiment. The following applies: with bscl2_human BSCL2, Q96G97.
bscl2_human BSCL2, Q96G97, sequence (Q96G97 whole entry): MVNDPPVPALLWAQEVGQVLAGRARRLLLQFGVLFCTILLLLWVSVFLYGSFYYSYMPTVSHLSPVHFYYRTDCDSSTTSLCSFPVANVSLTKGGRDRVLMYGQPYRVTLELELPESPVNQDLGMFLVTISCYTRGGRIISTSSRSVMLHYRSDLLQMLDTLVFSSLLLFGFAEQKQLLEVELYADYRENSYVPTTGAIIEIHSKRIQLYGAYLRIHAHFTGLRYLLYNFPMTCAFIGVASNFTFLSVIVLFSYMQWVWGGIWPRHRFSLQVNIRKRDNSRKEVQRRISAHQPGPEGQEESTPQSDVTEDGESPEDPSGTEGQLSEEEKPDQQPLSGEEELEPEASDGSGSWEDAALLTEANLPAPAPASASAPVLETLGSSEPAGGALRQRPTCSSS
As to T217M, the “effect of a mutation on the interaction” value was “with no effect”.

Variants of B5 are the subject of a further experiment. The note with it: with creb3_human CREB3, O43889.
creb3_human CREB3, O43889, sequence (O43889 whole entry): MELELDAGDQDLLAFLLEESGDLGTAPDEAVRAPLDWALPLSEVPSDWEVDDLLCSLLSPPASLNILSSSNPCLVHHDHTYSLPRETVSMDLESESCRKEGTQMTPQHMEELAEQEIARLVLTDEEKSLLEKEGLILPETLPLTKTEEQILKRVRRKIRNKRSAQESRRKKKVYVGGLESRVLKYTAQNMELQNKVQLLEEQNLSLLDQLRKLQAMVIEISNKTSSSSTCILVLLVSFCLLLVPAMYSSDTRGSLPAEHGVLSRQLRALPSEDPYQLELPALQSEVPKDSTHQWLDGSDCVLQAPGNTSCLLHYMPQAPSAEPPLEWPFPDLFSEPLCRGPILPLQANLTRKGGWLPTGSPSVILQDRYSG
For T217M, the “effect of a mutation on the interaction” value is given as “with no effect”.
